Holding throughout (test): SPR
Conditions in all cases: both partners purified

Test [1] has as its target T1, Recombinant Human Vimentin Protein, CF (human, UniProt P08670 1-466).
T1 construct: source: bought: Novus Biologicals, LLC/R&D Systems

The target of test [2] is T2, Recombinant Human GRP75/HSPA9B/Mortalin His Protein (human, UniProt P38646 47-679).
T2 construct: source: bought: Novus Biologicals, LLC/R&D Systems

Test [3] has as its target T1, Recombinant Human Vimentin Protein, CF. The source holds these as a separate data set.
Test [4] has as its target T2, Recombinant Human GRP75/HSPA9B/Mortalin …. This is another data set of the same source.

T2 sequence (P38646 47-679): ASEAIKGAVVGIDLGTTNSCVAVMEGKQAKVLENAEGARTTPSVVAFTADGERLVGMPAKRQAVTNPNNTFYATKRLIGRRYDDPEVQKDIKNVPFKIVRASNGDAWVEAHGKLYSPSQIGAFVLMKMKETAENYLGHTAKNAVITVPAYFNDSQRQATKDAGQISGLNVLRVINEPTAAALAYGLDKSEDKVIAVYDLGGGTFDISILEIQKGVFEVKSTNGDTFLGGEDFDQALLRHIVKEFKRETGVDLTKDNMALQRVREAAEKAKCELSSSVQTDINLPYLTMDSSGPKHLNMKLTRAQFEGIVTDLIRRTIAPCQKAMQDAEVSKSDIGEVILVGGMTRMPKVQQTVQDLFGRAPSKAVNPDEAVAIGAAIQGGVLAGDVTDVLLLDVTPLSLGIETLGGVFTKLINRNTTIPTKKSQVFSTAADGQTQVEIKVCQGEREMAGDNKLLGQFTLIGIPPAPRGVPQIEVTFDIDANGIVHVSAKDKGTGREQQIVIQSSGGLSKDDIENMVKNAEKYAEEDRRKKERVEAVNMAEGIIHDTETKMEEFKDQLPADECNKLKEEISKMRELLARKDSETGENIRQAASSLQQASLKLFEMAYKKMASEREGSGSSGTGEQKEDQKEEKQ
T1 sequence (P08670 whole entry): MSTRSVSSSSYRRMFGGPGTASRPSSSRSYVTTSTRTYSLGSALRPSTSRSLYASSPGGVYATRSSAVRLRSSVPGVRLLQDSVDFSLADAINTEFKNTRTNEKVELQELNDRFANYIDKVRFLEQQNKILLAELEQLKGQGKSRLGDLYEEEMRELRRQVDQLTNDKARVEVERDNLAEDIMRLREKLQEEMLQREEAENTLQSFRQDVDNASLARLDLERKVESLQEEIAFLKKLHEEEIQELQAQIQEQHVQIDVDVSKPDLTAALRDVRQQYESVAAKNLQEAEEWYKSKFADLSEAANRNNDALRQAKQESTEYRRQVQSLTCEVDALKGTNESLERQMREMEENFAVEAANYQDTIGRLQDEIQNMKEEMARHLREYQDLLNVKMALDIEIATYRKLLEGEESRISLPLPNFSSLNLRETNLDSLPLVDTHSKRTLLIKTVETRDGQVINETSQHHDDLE

B1: HIV-1 Nef protein (natural protein)
chain: MGGKWSKSSVVGWPTVRERMRRAEPAADGVGAASRDLEKHGAITSSNTAATNAACAWLEAQEEEEVGFPVTPQVPLRPMTYKAAVDLSHFLKEKGGLEGLIHSQRRQDILDLWIYHTQGYFPDWQNYTPGPGVRYPLTFGWCYKLVPVEPDKVEEANKGENTSLLHPVSLHGMDDPEREVLEWRFDSRLAFHHVARELHPEYFKNC
notes: also called full Nef protein
As for B1, the Kd in test [1] is 0.75 nM; in test [2], 3.16 nM; in test [3] it was 0.2 nM; in test [4], 2.1 nM.

(Values after PMC12469269, “Investigating SMR Peptide Interactions with Breast Cancer-Associated Proteins” (International Journal of Molecular Sciences, 2025).)
